According to US20120077224A1 (SALK INSTITUTE FOR BIOLOGICAL STUDIES, published 2012):
Non-standard residues stand in square brackets, D forms with d. Phe(4-N3) = [N-]=[N+]=Nc1ccc(C[C@H](N)C(=O)O)cc1

Assays:
[1] = molecular target: the molecule itself; test: in-cell photocrosslinking of the GST homodimer (365 nm, 10 min), band intensity ratio on anti-His Western blot
Experimental: E. coli GST is homodimer (Nishida et al., J. Mol. Biol., 1998, 281:135-147). Three sites at the dimer interface, Asn87 in a loop and Tyr92 and Val125 in α-helices were chosen for incorporating Azi (FIG. 10A). GST genes with TAG mutation at these sites and a C-terminal His6 tag were cotransfected with the orthogonal tRNACUA^Tyr/EAziRS pair in HEK293 cells, and the cells were grown in the presence of 1 mM of Azi. Photocrosslinking was performed by exposing the cells under 365 nm UV light for 10 minutes. Cell lysates were separated on SDS-PAGE and probed with an antibody against the His6 tag.
After photocrosslinking, higher molecular weight bands around 46 kD emerged, accompanied by the intensity decrease of the monomer band (several faint bands between 23 kD and 46 kD were proteins in the cell lysate recognized by the penta-His antibody nonspecifically, which were also seen in samples without exposure to UV light). […] Crosslinked GST migrated at different positions in the gel depending on where Azi was incorporated.

[2] = molecular target: the molecule itself; test: in-cell photocrosslinking of the GST homodimer, anti-FLAG Western blot

Protein	crosslinking efficiency [1]	binding result [2]
E. coli glutathione S-transferase (GST) with p-azidophenylalanine (Azi) incorporated at Asn87 (87TAG), C-terminal His6 tag (enzyme, Expressed in HEK293/HEK293T cells with tRNACUA-Tyr/EAziRS and 1 mM Azi; crosslinked in live cells with 365 nm UV; X stands for the unnatural amino acid Azi; also called GST 87TAG; site 87) MKLFYKPGACSLASHITLRESGKDFTLVSVDLMKKRLENGDDYFAVNPKGQVPALLLDDGTLLTEGVAIMQYLADSVPDRQLLAPV[Phe(4-N3)]SISRYKTIEWLNYIATELHKGFTPLFRPDTPEEYKPTVRAQLEKKLQYVNEALKDEHWICGQRFTIADAYLFTVLRWAYAVKLNLEGLEHIAAFMQRMAERPEVQDALSAEGLKHHHHHH	33%	
E. coli glutathione S-transferase (GST) with p-azidophenylalanine (Azi) incorporated at Tyr92 (92TAG), C-terminal His6 tag (enzyme, Expressed in HEK293/HEK293T cells with tRNACUA-Tyr/EAziRS and 1 mM Azi; crosslinked in live cells with 365 nm UV; X stands for the unnatural amino acid Azi; also called site 92; GST-His6) MKLFYKPGACSLASHITLRESGKDFTLVSVDLMKKRLENGDDYFAVNPKGQVPALLLDDGTLLTEGVAIMQYLADSVPDRQLLAPVNSISR[Phe(4-N3)]KTIEWLNYIATELHKGFTPLFRPDTPEEYKPTVRAQLEKKLQYVNEALKDEHWICGQRFTIADAYLFTVLRWAYAVKLNLEGLEHIAAFMQRMAERPEVQDALSAEGLKHHHHHH	40%	
E. coli glutathione S-transferase (GST) with p-azidophenylalanine (Azi) incorporated at Val125 (125TAG), C-terminal His6 tag (enzyme, Expressed in HEK293/HEK293T cells with tRNACUA-Tyr/EAziRS and 1 mM Azi; crosslinked in live cells with 365 nm UV; X stands for the unnatural amino acid Azi) MKLFYKPGACSLASHITLRESGKDFTLVSVDLMKKRLENGDDYFAVNPKGQVPALLLDDGTLLTEGVAIMQYLADSVPDRQLLAPVNSISRYKTIEWLNYIATELHKGFTPLFRPDTPEEYKPT[Phe(4-N3)]RAQLEKKLQYVNEALKDEHWICGQRFTIADAYLFTVLRWAYAVKLNLEGLEHIAAFMQRMAERPEVQDALSAEGLKHHHHHH	98%	
E. coli glutathione S-transferase (GST) with p-azidophenylalanine (Azi) incorporated at Asn87 (87TAG), C-terminal FLAG tag (enzyme, UniProt P0A9D2 1-201, looked up, not fully specified (C-terminus); also: homodimer, not shown: C-terminal FLAG tag replacing the His6 tag) MKLFYKPGACSLASHITLRESGKDFTLVSVDLMKKRLENGDDYFAVNPKGQVPALLLDDGTLLTEGVAIMQYLADSVPDRQLLAPV[Phe(4-N3)]SISRYKTIEWLNYIATELHKGFTPLFRPDTPEEYKPTVRAQLEKKLQYVNEALKDEHWICGQRFTIADAYLFTVLRWAYAVKLNLEGLEHIAAFMQRMAERPEVQDALSAEGLK		binds
E. coli glutathione S-transferase (GST) with p-azidophenylalanine (Azi) incorporated at Val125 (125TAG), C-terminal FLAG tag (enzyme, UniProt P0A9D2 1-201, looked up, not fully specified (C-terminus); also: homodimer, not shown: C-terminal FLAG tag replacing the His6 tag) MKLFYKPGACSLASHITLRESGKDFTLVSVDLMKKRLENGDDYFAVNPKGQVPALLLDDGTLLTEGVAIMQYLADSVPDRQLLAPVNSISRYKTIEWLNYIATELHKGFTPLFRPDTPEEYKPT[Phe(4-N3)]RAQLEKKLQYVNEALKDEHWICGQRFTIADAYLFTVLRWAYAVKLNLEGLEHIAAFMQRMAERPEVQDALSAEGLK		binds
